Molecular target: T1, SARS-CoV-2 NTD (SARS-CoV-2, UniProt P0DTC2 14-305)
T1 construct: domain: NTD
Experiment: ELISA, antigen plated at 2 µg/mL (FIG. 12A)

B1: antibody 5317-10 (antibody, V domains shown)
VH: EVQLVQSGAEVKKPGESLTISCKASGYRFTSNWITWVRQMPGKGLEWMGRIDPDDPYSNSSPSFQGHATLSLDKAINTAYLHWSSLKASDTAMYYCARVNRVGDGPDFWGQGTLVTVSS
VL: DIVMTQSPLSLPVTPGEPASISCRSSQSLLFGNGYTYLNWYLQKPGQSPQLLIYLGSNRASGVPDRFSVSGSGTDFTLIISRVEAEDVGVYFCMQALQTPWTFGQGTKVEIK
B1: no binding.

From patent US20240101646A1 (VANDERBILT UNIVERSITY, published 2024)
